Data taken from patent US20220143196A1 (ARIZONA BOARD OF REGENTS ON BEHALF OF THE UNIVERSITY OF …, published 2022).

Tests used:
[1] = target: T1, human melanocortin 1 receptor (MC1R) (human, UniProt Q01726 1-317); assay: competitive binding vs 125I-NDP-α-MSH on whole HEK293 cells overexpressing human MC1R
T1 construct: whole, on cells; also called MC1 receptor
Method: (§1) Competitive binding assays were performed on whole cells. Stably transfected HEK293 cell lines overexpressing human MC1R, MC3R, MC4R or MC5R were seeded on 96-well plates 48 h before the assay and grown to 100,000 cells per well. For the assay, the medium was removed, and cells were washed twice with a binding buffer containing minimum essential medium with Earle's salt (MEM, GIBCO), 25 mM HEPES (pH 7.4), 0.2% bovine serum albumin, 1 mM 1,10-phenanthrolone, 0.5 mg/L leupeptin and 200 mg/L bacitracin. […] The medium was subsequently removed, and the cells were washed twice with the binding buffer. The cells were lysed by 50 μL of 0.1 mM NaOH and 50 μL of 1% Triton X-100. The plates were left dry overnight under the hood, and 50 μL of scintillation fluid (OptiPhase SuperMix, PerkinElmer) were added in each well. The radioactivity was measured using MicroBeta 2 microplate counter (PerkinElmer). Data were analyzed using Graphpad Prism 6 (Graphpad Software, San Diego, Calif.).

human MC3R = target: T2, human MC3R (human, UniProt P41968 1-323); assay: competitive binding vs 125I-NDP-α-MSH on whole HEK293 cells overexpressing human MC3R
T2 construct: whole, on cells
Method: as §1

human MC4R = target: T3, human MC4R (human, UniProt P32245 1-332); assay: competitive binding vs 125I-NDP-α-MSH on whole HEK293 cells overexpressing human MC4R
T3 construct: whole, on cells
Method: as §1

human MC5R = target: T4, human MC5R (human, UniProt P33032 1-325); assay: competitive binding vs 125I-NDP-α-MSH on whole HEK293 cells overexpressing human MC5R
T4 construct: whole, on cells
T4 sequence (P33032 whole entry): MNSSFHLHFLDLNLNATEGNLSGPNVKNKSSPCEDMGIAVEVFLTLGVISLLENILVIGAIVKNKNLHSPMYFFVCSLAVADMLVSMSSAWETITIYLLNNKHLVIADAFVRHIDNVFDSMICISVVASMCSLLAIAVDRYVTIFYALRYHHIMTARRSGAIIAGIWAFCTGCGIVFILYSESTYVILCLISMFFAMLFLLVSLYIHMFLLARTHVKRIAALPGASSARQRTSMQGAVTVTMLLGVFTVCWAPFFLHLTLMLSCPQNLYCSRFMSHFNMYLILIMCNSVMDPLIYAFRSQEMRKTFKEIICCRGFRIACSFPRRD
Method: as §1

T1 sequence (Q01726 whole entry): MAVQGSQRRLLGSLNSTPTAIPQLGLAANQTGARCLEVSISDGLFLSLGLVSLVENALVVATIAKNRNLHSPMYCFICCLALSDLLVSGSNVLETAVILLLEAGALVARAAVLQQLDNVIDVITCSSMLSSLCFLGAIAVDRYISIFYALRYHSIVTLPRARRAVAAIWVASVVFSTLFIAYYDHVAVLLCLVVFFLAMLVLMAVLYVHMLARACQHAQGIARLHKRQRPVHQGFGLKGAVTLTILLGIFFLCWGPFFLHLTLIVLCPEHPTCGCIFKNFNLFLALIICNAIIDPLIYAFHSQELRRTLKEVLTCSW
T2 sequence (P41968 whole entry): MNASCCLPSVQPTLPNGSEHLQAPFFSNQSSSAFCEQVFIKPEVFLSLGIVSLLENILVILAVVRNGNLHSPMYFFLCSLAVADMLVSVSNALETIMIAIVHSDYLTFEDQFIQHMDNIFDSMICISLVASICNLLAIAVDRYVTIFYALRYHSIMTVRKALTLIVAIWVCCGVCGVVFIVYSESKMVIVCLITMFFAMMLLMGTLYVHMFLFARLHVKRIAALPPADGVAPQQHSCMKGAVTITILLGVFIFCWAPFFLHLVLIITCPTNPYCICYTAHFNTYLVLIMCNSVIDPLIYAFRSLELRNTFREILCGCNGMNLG
T3 sequence (P32245 whole entry): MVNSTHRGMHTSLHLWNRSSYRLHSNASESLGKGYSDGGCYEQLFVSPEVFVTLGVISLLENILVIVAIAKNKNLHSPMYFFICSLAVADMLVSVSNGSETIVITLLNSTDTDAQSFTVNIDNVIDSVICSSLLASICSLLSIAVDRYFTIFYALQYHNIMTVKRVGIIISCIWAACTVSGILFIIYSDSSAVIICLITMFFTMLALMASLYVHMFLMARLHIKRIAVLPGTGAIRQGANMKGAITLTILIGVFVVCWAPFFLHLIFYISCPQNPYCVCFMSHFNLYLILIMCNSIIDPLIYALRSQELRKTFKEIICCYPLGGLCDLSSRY

B1: camptothecin (CPT)-MT-II conjugate (1) (peptide)
peptide: CXLDHFRWK
modifications: not fully specified; Cys 1 thiol joined by a disulfide to a 2-thioethyl carbonate linker carrying camptothecin; 6-aminohexanoic acid (6-Ahx) at 2; Nle at 3; D-Phe at 6; lactam cyclization between Asp 4 and Lys 9 side chains; C-terminal amide; no N-terminal acetyl on Nle (replaced by the Cys-6-Ahx spacer)
notes: also called CPT-MT-II (1); camptothecin-MT-II (1)
B1 was tested, and the Ki [1] was 57 nM, the Ki (human MC3R) was 300 nM and the Ki (human MC4R) was 173 nM. It also gave a Ki (human MC5R) of 194 nM.

B2: fluorescein-MT-II conjugate (2) (peptide)
peptide: CXLDHFRWK
modifications: not fully specified; Cys 1 thiol joined by a disulfide to a 2-thioethyl carbonate linker carrying fluorescein; 6-aminohexanoic acid (6-Ahx) at 2; Nle at 3; D-Phe at 6; lactam cyclization between Asp 4 and Lys 9 side chains; C-terminal amide; no N-terminal acetyl on Nle (replaced by the Cys-6-Ahx spacer)
notes: also called fluorescein-MT-II (2); compound 2
With B2 the Ki [1] was 172 nM.
